Measurements: patent publication US20180155451A1 (published 2018)

T1: FcγRIIa R (extracellular domain with a His tag at the C terminus) (human, UniProt P12318 34-217)
T1 construct: extracellular domain; expressed in FreeStyle293 cells; also called FcgRIIa R; FcγRIIa type R; not shown: His tag at the C terminus
T1 sequence (looked up): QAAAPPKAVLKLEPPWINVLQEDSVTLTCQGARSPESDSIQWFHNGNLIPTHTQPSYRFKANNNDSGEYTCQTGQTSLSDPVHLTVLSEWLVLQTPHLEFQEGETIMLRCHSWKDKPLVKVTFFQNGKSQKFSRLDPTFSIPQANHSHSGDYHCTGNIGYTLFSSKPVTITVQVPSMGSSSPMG


Biological target: T2, FcγRIa (human, UniProt P12314 16-292)
T2 construct: extracellular domain; also called FcgRI; CD64
Experiment: SPR; vs GpH7-B3/GpL16-k0=100

T2 sequence (P12314 16-292): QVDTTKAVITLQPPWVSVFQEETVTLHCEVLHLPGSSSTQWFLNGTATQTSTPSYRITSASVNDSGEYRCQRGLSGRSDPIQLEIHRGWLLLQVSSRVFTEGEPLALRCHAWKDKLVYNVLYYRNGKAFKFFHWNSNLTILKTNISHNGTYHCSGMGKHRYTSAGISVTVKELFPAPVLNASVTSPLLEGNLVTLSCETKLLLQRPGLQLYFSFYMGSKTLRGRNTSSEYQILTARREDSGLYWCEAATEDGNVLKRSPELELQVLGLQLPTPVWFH

Row | Binder | Ho/Con_1a
1 | GpH7-B3 variant E269_04F/GpL16-k0 (antibody, human IgG1, kappa, homodimerized; also called Ho Ab E269_04F) heavy: not shown light: DIVMTQSPLSLPVTPGEPASISCQASESLVHSNRNTYLHWYLQKPGQSPQLLIYKVSNRFSGVPDRFSGSGSGTDFTLKISRVEAEDVGVYYCSQNTHVPPTFGQGTKVEIERTVAAPSVFIFPPSDEQLKSGTASVVCLLNNFYPREAKVQWKVDNALQSGNSQESVTEQDSKDSTYSLSSTLTLSKADYEKHKVYACEVTHQGLSSPVTKSFNRGEC | 102 % of control
2 | GpH7-B3 variant A327_09D/GpL16-k0 (antibody, human IgG1, kappa, homodimerized; also called Ho Ab A327_09D) heavy: not shown light: DIVMTQSPLSLPVTPGEPASISCQASESLVHSNRNTYLHWYLQKPGQSPQLLIYKVSNRFSGVPDRFSGSGSGTDFTLKISRVEAEDVGVYYCSQNTHVPPTFGQGTKVEIERTVAAPSVFIFPPSDEQLKSGTASVVCLLNNFYPREAKVQWKVDNALQSGNSQESVTEQDSKDSTYSLSSTLTLSKADYEKHKVYACEVTHQGLSSPVTKSFNRGEC | 102 % of control

Now from value to binder:

Row | Ho/Con_1a | Binder
3 | 86.1 % of control | GpH7-B3 variant A327_13S/GpL16-k0 (antibody, human IgG1, kappa, homodimerized; also called Ho Ab A327_13S) heavy: not shown light: DIVMTQSPLSLPVTPGEPASISCQASESLVHSNRNTYLHWYLQKPGQSPQLLIYKVSNRFSGVPDRFSGSGSGTDFTLKISRVEAEDVGVYYCSQNTHVPPTFGQGTKVEIERTVAAPSVFIFPPSDEQLKSGTASVVCLLNNFYPREAKVQWKVDNALQSGNSQESVTEQDSKDSTYSLSSTLTLSKADYEKHKVYACEVTHQGLSSPVTKSFNRGEC
4 | 84.4 % of control | GpH7-B3 variant A330_05P/GpL16-k0 (antibody, human IgG1, kappa, homodimerized; also called Ho Ab A330_05P) heavy: not shown light: DIVMTQSPLSLPVTPGEPASISCQASESLVHSNRNTYLHWYLQKPGQSPQLLIYKVSNRFSGVPDRFSGSGSGTDFTLKISRVEAEDVGVYYCSQNTHVPPTFGQGTKVEIERTVAAPSVFIFPPSDEQLKSGTASVVCLLNNFYPREAKVQWKVDNALQSGNSQESVTEQDSKDSTYSLSSTLTLSKADYEKHKVYACEVTHQGLSSPVTKSFNRGEC
5 | 93.1 % of control | GpH7-B3 variant A327_06M/GpL16-k0 (antibody, human IgG1, kappa, homodimerized; also called Ho Ab A327_06M) heavy: not shown light: DIVMTQSPLSLPVTPGEPASISCQASESLVHSNRNTYLHWYLQKPGQSPQLLIYKVSNRFSGVPDRFSGSGSGTDFTLKISRVEAEDVGVYYCSQNTHVPPTFGQGTKVEIERTVAAPSVFIFPPSDEQLKSGTASVVCLLNNFYPREAKVQWKVDNALQSGNSQESVTEQDSKDSTYSLSSTLTLSKADYEKHKVYACEVTHQGLSSPVTKSFNRGEC
6 | 98.8 % of control | GpH7-B3 variant A327_10E/GpL16-k0 (antibody, human IgG1, kappa, homodimerized; also called Ho Ab A327_10E) heavy: not shown light: DIVMTQSPLSLPVTPGEPASISCQASESLVHSNRNTYLHWYLQKPGQSPQLLIYKVSNRFSGVPDRFSGSGSGTDFTLKISRVEAEDVGVYYCSQNTHVPPTFGQGTKVEIERTVAAPSVFIFPPSDEQLKSGTASVVCLLNNFYPREAKVQWKVDNALQSGNSQESVTEQDSKDSTYSLSSTLTLSKADYEKHKVYACEVTHQGLSSPVTKSFNRGEC
7 | 94.4 % of control | GpH7-B3 variant A327_03V/GpL16-k0 (antibody, human IgG1, kappa, homodimerized; also called Ho Ab A327_03V) heavy: not shown light: DIVMTQSPLSLPVTPGEPASISCQASESLVHSNRNTYLHWYLQKPGQSPQLLIYKVSNRFSGVPDRFSGSGSGTDFTLKISRVEAEDVGVYYCSQNTHVPPTFGQGTKVEIERTVAAPSVFIFPPSDEQLKSGTASVVCLLNNFYPREAKVQWKVDNALQSGNSQESVTEQDSKDSTYSLSSTLTLSKADYEKHKVYACEVTHQGLSSPVTKSFNRGEC
8 | 95.5 % of control | GpH7-B3 variant A327_07I/GpL16-k0 (antibody, human IgG1, kappa, homodimerized; also called Ho Ab A327_07I) heavy: not shown light: DIVMTQSPLSLPVTPGEPASISCQASESLVHSNRNTYLHWYLQKPGQSPQLLIYKVSNRFSGVPDRFSGSGSGTDFTLKISRVEAEDVGVYYCSQNTHVPPTFGQGTKVEIERTVAAPSVFIFPPSDEQLKSGTASVVCLLNNFYPREAKVQWKVDNALQSGNSQESVTEQDSKDSTYSLSSTLTLSKADYEKHKVYACEVTHQGLSSPVTKSFNRGEC

Biological target: T1, FcγRIIa R (extracellular domain with a …)
Experiment: SPR Biacore, relative binding

Row | He/Con_2aR | Binder
9 | 106 % of GpH7-A5/GpH7-B3/GpL16-k0 (=100) | GpH7-A5/GpH7-B3 variant S337_19Q/GpL16-k0 (antibody, human IgG1, kappa, heterodimerized; mutation in one H chain; also called He Ab) heavy 1: not shown heavy 2: not shown light: DIVMTQSPLSLPVTPGEPASISCQASESLVHSNRNTYLHWYLQKPGQSPQLLIYKVSNRFSGVPDRFSGSGSGTDFTLKISRVEAEDVGVYYCSQNTHVPPTFGQGTKVEIERTVAAPSVFIFPPSDEQLKSGTASVVCLLNNFYPREAKVQWKVDNALQSGNSQESVTEQDSKDSTYSLSSTLTLSKADYEKHKVYACEVTHQGLSSPVTKSFNRGEC
10 | 110 % of GpH7-A5/GpH7-B3/GpL16-k0 (=100) | GpH7-A5/GpH7-B3 variant T335_13S/GpL16-k0 (antibody, human IgG1, kappa, heterodimerized; mutation in one H chain; also called He Ab) heavy 1: not shown heavy 2: not shown light: DIVMTQSPLSLPVTPGEPASISCQASESLVHSNRNTYLHWYLQKPGQSPQLLIYKVSNRFSGVPDRFSGSGSGTDFTLKISRVEAEDVGVYYCSQNTHVPPTFGQGTKVEIERTVAAPSVFIFPPSDEQLKSGTASVVCLLNNFYPREAKVQWKVDNALQSGNSQESVTEQDSKDSTYSLSSTLTLSKADYEKHKVYACEVTHQGLSSPVTKSFNRGEC
